Test: soluble on expression in E. coli; label from the status in PepcDB or PDB records

Row | Sequence | soluble on expression in E. coli
1 | MKAFNYYAPTEIIFGCGRVQEIGSITAQYGKKALLVTVPEFPEVKELYEKVKKSLRENGVEVVHFDGVIPNPTTDVVTEGANMAKAAGVDVVIGLGGGSSIDTAKAIAVEATHPGTAWDYNCHTPGPTSATLPIIAIGTTAGTGSQCTQCAVITKTSEKDKSAIWHKNIFPKVAIVDPEVTVTMPKSVTAQTGFDAFAHNFEAYLSVKTSPLVEMMAIEAIKMIKEYLPKALENPNDIEARSKMSLADTLGGLTNSNAGVTLPHGLGMQVGGHAPHVSHGQALAIIYPQFTRYTYAWAIEKFAKVGRIFNPALNELSDEEAAKEACVAIDDFLKKIGLWIGFKDVNVTKEQIREIADDGQVLGDYLNNPRVATIDEMYELLMNCYERKE | soluble
2 | MKAIILAGGHSVRFGKPKAFAEVNGETFYSRVIKTLESTNMFNEIIISTNAQLATQFKYPNVVIDDENHNDKGPLAGIYTIMKQHPEEELFFVVSVDTPMITGKAVSTLYQFLVSHLIENHLDVAAFKEDGRFIPTIAFYSPNALGAITKALHSDNYSFKNIYHELSTDYLDVRDVDAPSYWYKNINYQHDLDALIQKLLEHHHHHH | soluble
3 | MKALALIAHDAKKDEMVAFCLRHKDVLARYPLLATGTTGARIQEATGLAVERVLSGPLGGDLQIGARVAEGKVLAVVFLQDPLTAKPHEPDVQALMRVCNVHGVPLATNLVAAEALIAWIRKGTPQ | soluble
4 | MKALIFAAGFGERMRPLTEHTPKPLLSVGGAPLIVWHLRKLAALGVDEAVINTSWLAEQFPQLLGDGSAYGLRLTYSYEGTTPLETGGGMLHALPLLGDAPFLLINGDIWTDFDFSRLSHAPKGLAELVLVDRPSYAARADFALDADGKVRVDLPATLTYSGIGMYRPALLRDWQSVNGPLPEQVGTAPRFALAPILRAKMAQGLIDGIHHPGRWTDVGTPQRLAALDAQLLGDGGLEHHHHHH | not soluble
5 | MKAPFFNAPIFRQLIEFKSSTYTYIIGCHKTGKAVIIDPVVDTVSRDIQIIRDLNLDLIYGLNTHVHADHITGTNSLKTVFPTMKSVLSSKSGGEADKYVSDGEIIEIGGLKLEVRETPGHTNGCLTYVEHSLRSAFTGDALLIRACGRTDFQQGNPASLFDSVHDKIFTLPEDYVVYVGHNYNGVLQTTVWEEKNLNPRLTKSKDQFVEIMKNLKLNYPKQIDKAVPANMVDGKGH | not soluble
6 | MKAQMESWQDIQEYVKNNKKKHKRRMANDAMKNVNELGFPFTYFEDTYQFAIKTSIGMVDYFGTTGTWVVRKNQDRGRGLKKLKKYLEHPVPTKEIKKTKGNQSWMKNNR | not soluble
7 | MKASIYDFTLKELSQLLKPSFRAKQLYLWLYAKYKTSFKDMQNNFSKDFIAYLEREFALRTIEITHVRESVDGSKKYLFKSLRDNHTFEAVLLKMKDKKIDAETNAILEREKYTVCVSCQIGCQVGCSFCFTQKGGFVRNLKASEIIQQALLIKEDNNLPLEKALNIVFMGMGEPLNNLDEVCKAIEIFNTGMQISPKRITISTSGVADKIPILAGKNLGVQLAISLHAVDDKTRSSLMPLNKKYNIECVLNEVRKWPLEQRKRVMFEYLLIKDLNDSLDCAKKLLKLLNGIKSKVNLILFNPHEGSKFERPSLENARMFADFLNSKGLLCTIRESKALDIEAACGQLREKKLSQQILEHHHHHH | soluble
8 | MKASTVLQIAYLVSQESKCCSWKVGAVIEKNGRIISTGYNGSPAGGVNCCDYAAEQGWLLNKPKHAIIQGHKPECVSFGSTDRFVLAKEHRSAHSEWSSKNEIHAELNAILFAAENGSSIEGATMYVTLSPCPDCAKAIAQSGIKKLVYCETYDKNKPGWDDILRNAGIEVFNVPKKNLNKLNWENINEFCGE | soluble
9 | MKATPAQVPMKERIKEVATDMLIAHGSSGFRFQQIAQALDCTRGNIHYHYRHKHELVEDVTIEYCQRTIGHFDQIWLSDSTLSQKIQLSMQFNEMRYLKRNPQGDTSHPWSLIARMRLESALITPAAREALARYSHELQRSVVAGVRRAVEKGELRPDTPVEMVALPIIEMANSADPITRDAGRFDRLRQMYQAVDRLIHDAYGMAGHRPAP | not soluble
10 | MKAVIVYASVHHGNTKKIAEAMASVISADVIDVTRKIKPDLSGYDVIGFASGVYFHTFHERIKKCIEENLFSKGQKVFLVATCGLGYRDYTKGIKDILAKKHVSFIGNFQCRGWDTYGIFGKIGGIAKKHPNDRDLKEAQQFVLKTVCEKTIDDVALLEHHHHHH | soluble
11 | MKAVMLLSGGIDSSTLLYYLLDGGYEVHALTFFYGQKHSKEIESAEKVAKAAKVRHLKVDISTIHDLISYGALTGEEEVPKAFYSEEVQRRTIVPNRNMILLSIAAGYAVKIGAKEVHYAAHLSDYSIYPDCRKEFVKALDTAVYLANIWTPVEVRAPFVDMTKADIVRLGLKLGVPYELTWSCYEGGDRPCLSCGTCLERTEAFLANGVKDPLLSDEEWKNAVKIYEEMRARNEGKSD | not soluble
12 | MKAVSPVRPSGRKAPSGCGGGELALRCLAEHGHSLGGSAAAAAAAAAARCKAAEAAADEPALCLQCDMNDCYSRLRRLVPTIPPNKKVSKVEILQHVIDYILDLQLALETHPALLRQPPPPAPPHHPAGTCPAAPPRTPLTALNTDPAGAVNKQGDSILCR | soluble
13 | MKAYTKYLTFNTKKRRELIRITDEVKKAVEESEVKEGLCLVSSMHLTSSVIIQDDEEGLHEDIWEWLEKLAPYRPDYKHHRTGEDNGDAHLKNLLTHLQVVLPITNGKLDLGPWQEIFYAEFDGQRPKRVVIKIIGE | soluble
14 | MKCSKCGREAIYFARYEGRYYCHKHFNELVEGKVKRTIRKYRMIKRGEKVGVAVSGGKDSVVLMHILAKLRKKFPFELVAITIDEGIKGYRDKSVEVARKNAELLGVEHHIYRFKDFIGFTLDETVEIMGPREERVGACSYCGVWRRWLLNKAAEELGVDKLALGLNLDDEVQVFLMNLMRGDVARLGRTGPYYEVIHEGLVPRIKPLREVPEKEIVLYAVLNNIEVDLSECPYATEAFRAEIRDWLNEMEEKHPGTKYQLLRSYDKIFPLLAKTYAKEVKLNRCKICGQPTSGEICKACQFRLQVKEKSENLKFSLTK | not soluble
15 | MKDSAPELNVSSSETEEDKEEAKPDGEKDPDFNQSNGGTKRQKISHQNYIAYQKQVIRRSMRHRKVRGEKALLVSANQTLKELKIQIMHAFSVAPFDQNLSIDGKILSDDCATLGTLGVIPESVILLKADEPIADYAAMDDVMQGKDEFVLGIC | not soluble
16 | MKDWQLPSHSGPYELRIEVQPKSHHRAHYETEGSRGAVKASAGGHPIVQLHGYLENEPLMLQLFIGTADDRLLRPHAFYQVHRITGKTVSTTSHEAILSNTKVLEIPLLPENSMRAVIDCAGILKLRNSDIELRKGETDIGRKNTRVRLVFRVHVPQPSGRTLSLQVASNPIECSQRS | soluble
17 | MKEDTLLRKLVADGEGVGDDRKVQQIATFFRESRKEDAKTSVPEAVKVTKAIEEMYKKMEVAKNELADAKIVKRNRQEYRKLVNVLEEVPSRAETTRKLGEVKDDLERQHERQKVLEAKLMDRRNHLQAFMIILSNFQRFCAEDDDDDAEVMSNPGEDDDAASVTEKQQEDDVRK | not soluble
18 | MKEEATTLPQQFIKKYRLLLGEEASDFFSALEQGSVKKGFRWNPLKPAGLDMVQTYHSEELQPAPYSNEGFLGTVNGKSFLHQAGYEYSQEPSAMIVGTAAAAKPGEKVLDLCAAPGGKSTQLAAQMKGKGLLVTNEIFPKRAKILSENIERWGVSNAIVTNHAPAELVPHFSGFFDRIVVDAPCSGEGMFRKDPNAIKEWTEESPLYCQKRQQEILSSAIKMLKNKGQLIYSTCTFAPEENEEIISWLVENYPVTIEEIPLTQSVSSGRSEWGSVAGLEKTIRIWPHKDQGEGHFVAKLTFHGQNQMHKEKKTRKKSKVQMTKEQEKLWTEFSNDFHYEATGRLLVFNDHLWEVPELAPSLDGLKVVRTGLHLGDFKKNRFEPSYALALATKKIENIPCLPITQKEWQSYTAGETFQRDGNQGWVLLVLDKIPVGFGKQVKGTVKNFFPKGLRFH | soluble

Source: the DeepSol protein solubility set
